In the supplement of paper PMC10567573:

B1: C9orf25 (parent)
chain: LARKGSLKNGSMGSPVNQQPKKNN
B2: ZNF263 (parent)
chain: VPGTQVGQGGKLWDPSVQSCKEGL

Variants of: B1
Assay: protein stability index of a GFP-peptide fusion (GPS, HEK-293T) (PSI 1-6); higher = more stable
Details: c terminus: a fixed tail appended
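Also: lentivirally expressed fusions sorted by FACS into six bins by GFP to DsRed ratio, PSI derived from sequencing read proportions per bin multiplied by bin number.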

Going from LARKGSLKNGSMGSPVNQQPCKNN [K21C] to LAFKGSLKNGSMGSPVNQQPKKNN [R3F], the protein stability index rises from 3.98 to 4.54.

Compared with LARKGSLKNGSMGSPVNTQPKKNN [Q18T], LARKGSLKNGSMGSPVNSQPKKNN [Q18S] is lower in protein stability index: 5.01 for the first, 4.97 for the second.

Compared with LARKGSLKNGSMGSPVNAQPKKNN [Q18A], LARKGSLKNGSMGSPVNCQPKKNN [Q18C] is lower in protein stability index: 4.74 for the first, 4.6 for the second.

Going from LARKGSLKNGSMGSPVNIQPKKNN [Q18I] to LARKGSLVNGSMGSPVNQQPKKNN [K8V], the protein stability index falls from 4.52 to 4.43.

Compared with LARKGSLYNGSMGSPVNQQPKKNN [K8Y], LARKGSLCNGSMGSPVNQQPKKNN [K8C] is higher in protein stability index: 4.11 for the first, 4.32 for the second.

First: LARKGSLKNGSMGSPVSQQPKKNN [N17S]
Second: LARKGSLKNGSMGSPVDQQPKKNN [N17D]
The protein stability index of the first is lower: 4.54 for the first, 5.12 for the second.

First: LARKGSLKNGSMGSPVMQQPKKNN [N17M]
Second: LARKGELKNGSMGSPVNQQPKKNN [S6E]
The protein stability index of the first is lower: 4.83 for the first, 5.15 for the second.

First: AARKGSLKNGSMGSPVNQQPKKNN [L1A]
Second: LARKGSLKNGSMGSPVNQQIKKNN [P20I]
The protein stability index of the first is higher: 5.34 for the first, 4.65 for the second.

Compared with LARKGSLKNGSMGSPVNQQWKKNN [P20W], LARKGSYKNGSMGSPVNQQPKKNN [L7Y] is higher in protein stability index: 4.1 for the first, 4.17 for the second.

First: LARKGSLKNGSMGSRVNQQPKKNN [P15R]
Second: LARKGSLKNGSMGSIVNQQPKKNN [P15I]
The protein stability index of the first is lower: 3.8 for the first, 4.66 for the second.

Compared with LARKGSLKNGSMGSSVNQQPKKNN [P15S], LARKGSLKNQSMGSPVNQQPKKNN [G10Q] is higher in protein stability index: 4.26 for the first, 4.34 for the second.

First: LARKGSLKNCSMGSPVNQQPKKNN [G10C]
Second: LARKGSLKNKSMGSPVNQQPKKNN [G10K]
The protein stability index of the first is lower: 4.33 for the first, 4.35 for the second.

Going from LARKGSLKNGSHGSPVNQQPKKNN [M12H] to LARKGSLKNGSTGSPVNQQPKKNN [M12T], the protein stability index rises from 4.42 to 4.74.

Compared with LARKGSLKNGSWGSPVNQQPKKNN [M12W], LARKGSLKNGSSGSPVNQQPKKNN [M12S] is higher in protein stability index: 4.11 for the first, 4.94 for the second.

Compared with LARKGSLKNGSMGSPVNQQPKKNH [N24H], LARKGSLKNGSMGSPVNQQPKKNF [N24F] is lower in protein stability index: 4.79 for the first, 3.96 for the second.

Compared with LARKSSLKNGSMGSPVNQQPKKNN [G5S], LARKASLKNGSMGSPVNQQPKKNN [G5A] is lower in protein stability index: 4.8 for the first, 4.5 for the second.

First: LARKTSLKNGSMGSPVNQQPKKNN [G5T]
Second: LARKGSLKNGSMKSPVNQQPKKNN [G13K]
The protein stability index of the first is higher: 4.53 for the first, 4.28 for the second.

Compared with LARKGSLKNGDMGSPVNQQPKKNN [S11D], LARKGSLKNGVMGSPVNQQPKKNN [S11V] is lower in protein stability index: 4.8 for the first, 4.71 for the second.

Going from LARKGSLKNGIMGSPVNQQPKKNN [S11I] to LARKGSLKNGHMGSPVNQQPKKNN [S11H], the protein stability index falls from 4.41 to 4.15.

Compared with LARKGSLKNGSMGWPVNQQPKKNN [S14W], LARKGSLKNGSMGHPVNQQPKKNN [S14H] is higher in protein stability index: 4.13 for the first, 4.96 for the second.

Compared with LARKGSLKIGSMGSPVNQQPKKNN [N9I], LARKGSLKNGSMGSPVNQLPKKNN [Q19L] is higher in protein stability index: 4.64 for the first, 4.67 for the second.

Going from LARKGSLKNGSMGSPVNQTPKKNN [Q19T] to LARKGSLKNGSMGSPNNQQPKKNN [V16N], the protein stability index falls from 4.74 to 4.4.

First: LARKGSLKNGSMGSPFNQQPKKNN [V16F]
Second: LARMGSLKNGSMGSPVNQQPKKNN [K4M]
The protein stability index of the first is lower: 3.91 for the first, 4.62 for the second.

With LARGGSLKNGSMGSPVNQQPKKNN [K4G] the protein stability index was 5.17.

Variants of: B2
Assay: as above
Details: c terminus: a fixed tail appended

First: VPRTQVGQGGKLWDPSVQSCKEGL [G3R]
Second: VPPTQVGQGGKLWDPSVQSCKEGL [G3P]
The protein stability index of the first is lower: 3.35 for the first, 4.5 for the second.

First: VPATQVGQGGKLWDPSVQSCKEGL [G3A]
Second: VPKTQVGQGGKLWDPSVQSCKEGL [G3K]
The protein stability index of the first is higher: 4.21 for the first, 3.77 for the second.

Compared with VPVTQVGQGGKLWDPSVQSCKEGL [G3V], VPQTQVGQGGKLWDPSVQSCKEGL [G3Q] is higher in protein stability index: 3.99 for the first, 4 for the second.

Going from VPYTQVGQGGKLWDPSVQSCKEGL [G3Y] to VPCTQVGQGGKLWDPSVQSCKEGL [G3C], the protein stability index rises from 4.06 to 4.12.

First: VPDTQVGQGGKLWDPSVQSCKEGL [G3D]
Second: VPWTQVGQGGKLWDPSVQSCKEGL [G3W]
The protein stability index of the first is higher: 4.96 for the first, 3.77 for the second.

Compared with VPLTQVGQGGKLWDPSVQSCKEGL [G3L], VPFTQVGQGGKLWDPSVQSCKEGL [G3F] is lower in protein stability index: 4.1 for the first, 3.01 for the second.

Going from VPHTQVGQGGKLWDPSVQSCKEGL [G3H] to VPMTQVGQGGKLWDPSVQSCKEGL [G3M], the protein stability index falls from 4.28 to 3.8.

First: VPNTQVGQGGKLWDPSVQSCKEGL [G3N]
Second: VPTTQVGQGGKLWDPSVQSCKEGL [G3T]
The protein stability index of the first is lower: 4.3 for the first, 4.32 for the second.

First: VPETQVGQGGKLWDPSVQSCKEGL [G3E]
Second: VPSTQVGQGGKLWDPSVQSCKEGL [G3S]
The protein stability index of the first is higher: 4.88 for the first, 3.48 for the second.

Compared with VPITQVGQGGKLWDPSVQSCKEGL [G3I], VPGTQCGQGGKLWDPSVQSCKEGL [V6C] is lower in protein stability index: 4.3 for the first, 3.49 for the second.

Going from VPGTQKGQGGKLWDPSVQSCKEGL [V6K] to VPGTQMGQGGKLWDPSVQSCKEGL [V6M], the protein stability index falls from 4.69 to 4.29.

First: VPGTQLGQGGKLWDPSVQSCKEGL [V6L]
Second: VPGTQRGQGGKLWDPSVQSCKEGL [V6R]
The protein stability index of the first is lower: 4.03 for the first, 4.55 for the second.

Compared with VPGTQIGQGGKLWDPSVQSCKEGL [V6I], VPGTQQGQGGKLWDPSVQSCKEGL [V6Q] is higher in protein stability index: 4.28 for the first, 4.73 for the second.

First: VPGTQAGQGGKLWDPSVQSCKEGL [V6A]
Second: VPGTQHGQGGKLWDPSVQSCKEGL [V6H]
The protein stability index of the first is higher: 3.97 for the first, 3.51 for the second.

Going from VPGTQYGQGGKLWDPSVQSCKEGL [V6Y] to VPGTQTGQGGKLWDPSVQSCKEGL [V6T], the protein stability index rises from 3.82 to 4.7.

First: VPGTQDGQGGKLWDPSVQSCKEGL [V6D]
Second: VPGTQSGQGGKLWDPSVQSCKEGL [V6S]
The protein stability index of the first is lower: 4.3 for the first, 4.67 for the second.

Going from VPGTQFGQGGKLWDPSVQSCKEGL [V6F] to VPGTQEGQGGKLWDPSVQSCKEGL [V6E], the protein stability index falls from 4.65 to 4.29.

Compared with VPGTQNGQGGKLWDPSVQSCKEGL [V6N], VPGTQPGQGGKLWDPSVQSCKEGL [V6P] is lower in protein stability index: 4.47 for the first, 4.26 for the second.

Going from VPGTQWGQGGKLWDPSVQSCKEGL [V6W] to VPGTQGGQGGKLWDPSVQSCKEGL [V6G], the protein stability index rises from 3.36 to 4.83.

Going from VAGTQVGQGGKLWDPSVQSCKEGL [P2A] to VVGTQVGQGGKLWDPSVQSCKEGL [P2V], the protein stability index falls from 4.17 to 4.01.

First: VKGTQVGQGGKLWDPSVQSCKEGL [P2K]
Second: VYGTQVGQGGKLWDPSVQSCKEGL [P2Y]
The protein stability index of the first is higher: 3.89 for the first, 2.83 for the second.

Going from VHGTQVGQGGKLWDPSVQSCKEGL [P2H] to VRGTQVGQGGKLWDPSVQSCKEGL [P2R], the protein stability index rises from 3.75 to 4.24.

First: VEGTQVGQGGKLWDPSVQSCKEGL [P2E]
Second: VQGTQVGQGGKLWDPSVQSCKEGL [P2Q]
The protein stability index of the first is higher: 4.25 for the first, 3.87 for the second.

Work on VMGTQVGQGGKLWDPSVQSCKEGL [P2M] yielded a protein stability index of 4.26.
